The text below walks through data of US20250314646, “SYSTEMS AND METHODS FOR ANALYTE DETECTION IN BIOLOGICAL SOLUTIONS” (eGlint, Inc., published 2025).

The target in data set [1] is T1, PDGF-BB (UniProt P01127 P01127:82-190). Kind of data set: fluorescence thermal melt in solution; Tm about 55 C unbound to about 65 C bound; 1x PBS, 1 mM MgCl2, 0.1 mg/ml BSA. The conditions noted are these: chain copies: 2 (homodimer, inferred); label: 5' fluorescein, 3' Black Hole Quencher 1. On the procedure:
In one representative experiment, aptamer comprising a competent binding state and a dye pair (fluoresceine and black hole quencher) was measured for their persistence in the changed environment of temperature as described herein. […] PDGF-BB, bovine serum albumine (BSA), magnesium chrolide, and phosphate buffered saline (PBS) all other buffers were ordered from Sigma-Millipore. 41T aptamer at a concentration of either 316 nM, or 100 nM, or 31.6 nM, or 10 nM were mixed with variable concentrations PDGF-BB (from […] dilution factor) in 1× PBS containing 1 mM MgCl₂, and 0.1 mg/ml BSA on white 384 well PCR plate (BioRad) and subjected to the following thermal protocol on BioRad CFX384 qPCR instrument: lid at 95° C., melting curve step from 30° C. to 80° C. with images (FAM/SYBR channel) every 0.5° C., 10 seconds per step. FIG. 5 presents melting curves (left panels) and the first derivative (right panels) of thermal titration experiments. To estimate the relative populations of free aptamers and aptamers bound to the target (% bound), the areas under the curve of the first derivative (dRFU/dT) were integrated for both unbound (left peak with Tₘ˜55° C.) and bound (right peak with Tₘ˜65° C.) peaks. % bound as a function of the target concentration is presented as a dose response in FIG. 6.

Data set [2] deals with T1, PDGF-BB. Kind of data set: surface thermal melt; Tm about 32 C unbound to about 42 C bound; 0.75 mg/mL HSA, 40% DMSO; also bound peak about 55 C with 100 nM in human plasma without DMSO. The conditions noted are these: chain copies: 2 (homodimer, inferred); label: 3' Cy3. On the procedure: (§1) PDGF-BB and PDGF-AA were obtained from R&D Systems (Minneapolis, USA). Human serum albumine (HSA), phosphate buffered saline (PBS) and all other reagents were ordered from Sigma-Millipore. The aptamer was covalently linked to the solid support by spotting 4.5 μL of the 0.25 uM aptamer solution in 1× PBS buffer. The spots were incubated for 10 minutes to allow for surface immobilization and washed with 1× PBS buffer. Solutions with a variable amount of PDGF-BB or PDGF-AA (630 nM to 2 nM 3.16× dilution series or 300 nM to 75 nM 2× dilution series, respectively) and containing 0.75 mg/mL. HSA, 40% DMSO (v/v) were applied to the surface coated with the aptamers and incubated for 5 minutes at room temperature. The temperature was increased to 45° C. by placing the slide on a heating element. The change in fluorescence intensity of the modified aptamer was as a function of temperature was monitored by fluorescence microscope coupled to a CMOS sensor. FIGS. 9A and 10 presents normalized first derivative of the melting curves for PDGF-BB or PDGF-AA titration experiments, respectively. […]

In data set [3] the target is PDGF-AA (UniProt P04085 P04085:87-211). Kind of data set: surface thermal melt, 75-300 nM PDGF-AA; no binding and no dose response; 0.75 mg/mL HSA, 40% DMSO. As to conditions: tags: R&D Systems; chain copies: 2 (homodimer, inferred); label: 3' Cy3. Here is the method:
as §1, with “The solid support consisted of coated ITO glass slides functionalized with azido groups (Sikemia, Grabels, France) to form a covalent bond between the DBCO-labeled aptamer and the surface. PDGF-BB and” for “PDGF-BB and”

T1 sequence (P01127 82-190, one chain of several): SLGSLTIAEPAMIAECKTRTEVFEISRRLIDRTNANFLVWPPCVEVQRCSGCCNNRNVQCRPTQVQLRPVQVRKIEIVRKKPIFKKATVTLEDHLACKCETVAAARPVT

For TACTCAGGGCACTGCAAGCAATTGTGGTCCCAATGGGCTGAGTA (ssDNA) [41T aptamer (solution, FIG. 4A)], the binding result in data set [1] was “binds”.

Consider TTTTTTACTCAGGGCACTGCAAGCAATTGTGGTCCCAATGGGCTGAGTA (ssDNA, 5' DBCO-TEG via five-thymidine linker, thymine-linked Black Hole Quencher 2) [41T aptamer (surface-immobilized, FIG. 4B)], for which the binding result is given as “binds” in data set [2] and “no binding” in data set [3].
